Assay results reported in publication PMC7170532 (2020).

T1: pro-myostatin (uncleavable precursor, D99A/R263A/R266A) (human, UniProt O14793 24-375, D99A | R263A | R266A)
T1 sequence: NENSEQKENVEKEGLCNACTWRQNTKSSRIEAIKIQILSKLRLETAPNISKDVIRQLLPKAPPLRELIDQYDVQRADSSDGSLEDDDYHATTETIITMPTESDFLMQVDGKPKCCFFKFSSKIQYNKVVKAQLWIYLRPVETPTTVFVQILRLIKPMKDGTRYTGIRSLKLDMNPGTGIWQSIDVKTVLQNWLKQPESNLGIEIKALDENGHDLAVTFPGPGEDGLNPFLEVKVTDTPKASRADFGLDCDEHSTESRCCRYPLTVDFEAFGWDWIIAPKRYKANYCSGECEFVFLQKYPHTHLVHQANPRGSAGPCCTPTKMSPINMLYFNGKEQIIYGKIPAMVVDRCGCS

B1: 29H4-16 human IgG4 (antibody, V domains shown)
VH: QIQLVQSGGGVVQPGRSLRLSCAASGFTFSSYGMHWVRQAPGKGLEWVAVISYDGSRKYYADSVKGRFTISRDNSKNTLYLQMNSLRAEDTAVYYCARDLLVRFLYWSHYYGMDVWGQGTTVTVSS
VL: QPVLTQPPSASGTPGQRVTISCSGSSSNIGSNPVHWYQQLPGTAPKLLIYDDNQRPSGVPDRFSGSKSGTSASLVISGLQSDDEADYYCAAWDDSLNSVFGGGTKLTVL
B2: 29H4-16 Fab (Fab, V domains shown)
VH: B1 VH
VL: B1 VL

Columns and labels:
[1] = target: latent myostatin (human, UniProt O14793 267-375); assay: BLI
[2] = target: T1, pro-myostatin (uncleavable precursor, …); assay: BLI

Binder | Kd [1] [nM] | Kd [2] [nM]
B1 | < 0.001 | < 0.001
B2 | 1.76 | 1.51
